We go through one molecule from paper doi:10.1101/2020.08.14.250746 (bioRxiv, 2020).

For the assay, the target named is Untagged human calmodulin (recombinant) (human, UniProt P0DP23 1-149). The assay is described as follows: pull-down.

B1: GFP-myoVa-IQ1 (aa742-791) (domain or fragment)
chain: FGKTKIFFRAGQVAYLEKLRADKLRAACIRIQKTIRGWLLRKRYLCMQR
Turning to B1, the binding result was “binds”.
